Test results as given in the supplement of paper PMC9732359.
± gives the uncertainty stated by the source.

Test: protein stability index of a GFP-peptide fusion (yeast GPS) (PSI 1-4); higher = more stable; sorted into four equal gates, so the index is relative within each strain
Outline: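 Mid-log yeast cultures in leucine-free medium, carrying a pooled plasmid library, were sorted into four equal gates by their GFP/Cherry fluorescence ratio. Each plasmid expressed Cherry along with GFP fused upstream of a tiled 17-residue yeast protein peptide. Plasmids recovered from each gate were PCR-amplified and Illumina-sequenced, with reads assigned to strains by barcodes. The protein stability index was obtained by summing each gate's read frequency weighted by its gate number.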

Sequence	protein stability index (doa10∆)	protein stability index (pdr5∆)	protein stability index (ubr1∆)	protein stability index (san1∆)
KQIVHDSGRGAPLAKVV [RPL2A]	2.16 ± 0.22	2.16 ± 0.18	2.41 ± 0.17	
PFGAKSTKSNKAKNPLT [RPL8B]	3.38 ± 0.094	3.1 ± 0.067	2.93 ± 0.091	2.98 ± 0.061
AVKLGDLKKFTSTITKY [RPN3]	2.1 ± 0.056	2.51 ± 0.044	2.56 ± 0.035	2.27 ± 0.066
THSKLFADKKRDCIDIS [PRP8]	3.45 ± 0.095	3.2 ± 0.077	3.38 ± 0.074	3.18 ± 0.061
VQCHGSFATATCVTCHW [SIR2]	2.28 ± 0.047	2.55 ± 0.046	2.51 ± 0.031	2.26 ± 0.045
VDPLKSLEDKILRMGAF [RRI1]	3.19 ± 0.12	3.04 ± 0.14	2.94 ± 0.094	2.88 ± 0.12
RPSITEAMMLKEEGLQQ [MED1]	3.41 ± 0.25	3.65 ± 0.2	2.94 ± 0.21	3.16 ± 0.061
LPGELAKHAVSEGTRAV [HTB1]	3.22 ± 0.11	3.46 ± 0.12	3.31 ± 0.088	3.42 ± 0.071
QEMIDILETIFRGARKN [DIB1]	2.83 ± 0.14			2.77 ± 0.17
VPVRDGVTIEFSTNVKD [RPL9A]	1.35 ± 0.27	1.58 ± 0.26		
ESMLHLSIWIKNYPEYF [IRR1]	2.17 ± 0.046	2.06 ± 0.038	2.2 ± 0.043	2.25 ± 0.061
GEPEAGNKALEDEEEFS [RPC34]	3.18 ± 0.13	3.26 ± 0.26		
SASTSATGISGSVSEET [ECM29]	3.34 ± 0.047	3.25 ± 0.047	3.33 ± 0.042	3.12 ± 0.041
QQPHYIQRTRERKKSIG [DSN1]	2.93 ± 0.067	2.85 ± 0.047	2.69 ± 0.051	2.63 ± 0.048
NEDDLTVKLTEIVWTSS [RPO31]	2.89 ± 0.093	3.04 ± 0.09	3.14 ± 0.059	3.01 ± 0.074
QKETQKVTKIWSKESNY [PRP28]	1.63 ± 0.04	2.1 ± 0.041	1.95 ± 0.027	2.3 ± 0.047
VPTGGASSAAAGAAGAA [RPP2B]	2.88 ± 0.11	3.04 ± 0.083	2.97 ± 0.1	3.17 ± 0.07
LYLKVIPMDFIRNVLVT [SSN2]	1.36 ± 0.094	1.11 ± 0.16	1.29 ± 0.16	1.4 ± 0.23
RSNGSVASLSKRNKLLT [YJL039C/NUP192]	1.73 ± 0.1	1.55 ± 0.068	1.54 ± 0.062	2.1 ± 0.12
EYQVIGRRLPTESVPEP [RPL20A]	3.08 ± 0.11	3.21 ± 0.1	3.15 ± 0.06	3.1 ± 0.13
EWFEQNNSEQDQEIVIQ [ISW2]	3.04 ± 0.13	3.19 ± 0.14	3.25 ± 0.093	2.45 ± 0.18
DSLSVPKVSAGDSGISP [SIR4]	3.24 ± 0.12	3.24 ± 0.11	3.18 ± 0.058	3.02 ± 0.084
AEKYQERSLRQKYNLLH [SNM1]	2.32 ± 0.057	2.73 ± 0.074	3.12 ± 0.083	3.23 ± 0.067
FHVGFIAKIKKVCECVC [RPO21]	1.15 ± 0.046	1.27 ± 0.064	1.26 ± 0.059	1.43 ± 0.11
PTSPAYSPTSPSYSPTS [RPO21]	2.89 ± 0.051	2.86 ± 0.045	2.9 ± 0.035	2.73 ± 0.037
PGGAASKSVPTPSLPIA [SNF5]	2.9 ± 0.062	3.07 ± 0.056	3.06 ± 0.041	2.97 ± 0.036
EDKFLYGDGNGKGDNDN [SWI3]	3.48 ± 0.24	3.35 ± 0.16	3.42 ± 0.15	3.4 ± 0.08

Sequence	protein stability index (doa10∆)	protein stability index (pdr5∆)	protein stability index (ubr1∆)	protein stability index (san1∆)
LAKSKASLTAARTAANS [RPN6]	2.5 ± 0.18	2.69 ± 0.12	2.7 ± 0.051	2.83 ± 0.097
WLNFLRGTIPLLERYIG [PRP8]	1.41 ± 0.068	1.23 ± 0.046	1.1 ± 0.065	1.18 ± 0.077
CCINAAFLALVDAGIAL [RRP46]	2.37 ± 0.078	2.88 ± 0.07	2.62 ± 0.051	2.06 ± 0.061
SEGEQKSAEGNNIDQSL [YAR002W/NUP60]	2.98 ± 0.063	2.94 ± 0.048	3.05 ± 0.065	2.94 ± 0.066
KATAAKKAVVKGTNGKK [RPL25]	3.3 ± 0.15	2.05 ± 0.1	1.29 ± 0.22	1.53 ± 0.17
AIAGNSTTNSDVSLLLQ [RGR1]	3.09 ± 0.13	2.19 ± 0.082	3.13 ± 0.071	3.03 ± 0.056
TKGMITNLQRNVDRLYK [NUT2]	3.47 ± 0.29	3.35 ± 0.18	3.24 ± 0.16	2.69 ± 0.24
ENGDEDEDEDEDEDDDD [QCR6]	2.01 ± 0.045	1.74 ± 0.038	2.46 ± 0.043	1.92 ± 0.05
VRIFTKIESEDDYILSG [SRB4]			2.79 ± 0.092	
LMQNMMNMFGGGMGGGM [SRP54]	1.85 ± 0.16	2.53 ± 0.063	2.27 ± 0.081	2.47 ± 0.17
KTFSRLDALTRHIKSKH [RPN4]	1.11 ± 0.12	1.25 ± 0.087	1.5 ± 0.1	1.06 ± 0.12
MWSVARAGQRGYHSRTS [RPL3]	2.86 ± 0.11	3.14 ± 0.091	3.11 ± 0.095	3.16 ± 0.069
TRSNPPFKRKMLLVDII [REC8]	1.9 ± 0.098	1.98 ± 0.087	2.58 ± 0.061	2.14 ± 0.16
QDNKKIYVHVRRSTPFS [ESC2]	2.34 ± 0.049	2.49 ± 0.049	2.64 ± 0.04	2.61 ± 0.049
CTQMTDEGLLNMVSLRG [GRR1]	2.78 ± 0.1	2.66 ± 0.083	2.02 ± 0.054	2.22 ± 0.088
LKKLEKEYELLTLQEDY [RPT3]	2.37 ± 0.1	2.31 ± 0.13	2.32 ± 0.052	2.6 ± 0.12
NYGMIAINPGRVAASFS [FAS1]	1.72 ± 0.1	1.89 ± 0.09	1.81 ± 0.06	1.46 ± 0.076
WVFSYLRWFELKPKLYY [SIR3]	1.93 ± 0.081	1.96 ± 0.071	2.49 ± 0.054	2.5 ± 0.19
EDNGIVKALRNVPGVET [RPL4A]	1.77 ± 0.16		2.47 ± 0.19	2.46 ± 0.11
SPTENGVFDPASYSKYL [RPL22B]	3.18 ± 0.074	3.25 ± 0.083	2.87 ± 0.06	3.05 ± 0.066
ILRNGIDYLQRNDKTLE [POP1]	3.19 ± 0.058	3.01 ± 0.056	2.88 ± 0.051	2.95 ± 0.054
NSPSSALRALQENGTIF [YDL088C/ASM4]	2.13 ± 0.062	2.05 ± 0.053	2.01 ± 0.039	1.53 ± 0.069
EHSQVEQTCVKLLDSGC [SRP72]	3.15 ± 0.068	3.38 ± 0.083	3.34 ± 0.063	3.11 ± 0.085
KTQLGSTMTEPVKQSFI [GAL11]	2.81 ± 0.051	2.9 ± 0.06	2.85 ± 0.037	2.56 ± 0.053
ALTVQEVLNRVASRHPS [YDL116W/NUP84]	3.1 ± 0.086	3.15 ± 0.073	3.3 ± 0.047	3.12 ± 0.043
EGRLYQVEYALESISHA [PRE9]	2.09 ± 0.056	2.19 ± 0.068	1.85 ± 0.048	1.98 ± 0.086
VHNTVAAGNASSLPPGE [SNF5]	2.82 ± 0.094	2.75 ± 0.071	2.75 ± 0.077	2.94 ± 0.06
